From patent US10266566 (NORTH CAROLINA STATE UNIVERSITY, dated 2019)
*1 amine or outer side, *2 acyl side, *3 side chain or, on linkers, in order; H or OH if unused. Where no end group is shown, it is not given here. [ ]: non-standard residue; d: D form. Tyr(Me) = O-methyl-tyrosine, COc1ccc(C[C@H](N[*:1])C(=O)[*:2])cc1; Trp(1-Me) = Cn1cc(C[C@H](N)C(=O)O)c2ccccc21; Phe(4-Me) = Cc1ccc(C[C@H](N)C(=O)O)cc1; Lys(Me2) = CN(C)CCCC[C@H](N)C(=O)O; Cit = NC(=O)NCCC[C@H](N)C(=O)O

B1: HFRRHL (peptide)
peptide: HFRRHL-{Toyopearl AF‑Amino‑650M resin}
notes: Synthetic hexapeptide on Toyopearl resin; also called HFRRHL-Toyopearl
B2: HYMetFMetKMet2FMetD (peptide)
peptide: H[Tyr(Me)][Phe(4-Me)][Lys(Me2)][Phe(4-Me)]D-{Toyopearl AF‑Amino‑650M resin}
notes: Variant of HYFKFD on Toyopearl resin, used as a negative control; also called HYMetFMetK(Met)2FMetD-Toyopearl
B3: HYFKFD (peptide)
peptide: HYFKFD-{Toyopearl AF‑Amino‑650M resin}
notes: Synthetic hexapeptide on Toyopearl resin; also called HYFKFD-Toyopearl
B4: Ac-HWMetCitGWMetV (peptide)
peptide: Ac-H[Trp(1-Me)][Cit]G[Trp(1-Me)]V-{Toyopearl AF‑Amino‑650M resin}
notes: Acetylated HWMetCitGWMetV on Toyopearl resin; also called Ac-HWMetCitGWMetV-Toyopearl
B5: HWRGWV (peptide)
peptide: HWRGWV-{Toyopearl AF‑Amino‑650M resin}
modifications: not fully specified
notes: Synthetic hexapeptide made directly on Toyopearl AF-Amino-650M resin after a first Fmoc-Ala-OH coupling, about 0.12 meq/g; also called HWRGWV-Toyopearl; original peptide ligand
B6: HFMetCitCitHL (peptide)
peptide: H[Phe(4-Me)][Cit][Cit]HL-{Toyopearl AF‑Amino‑650M resin}
notes: Variant of HFRRHL on Toyopearl resin; also called HFMetCitCitHL-Toyopearl
B7: HWMetCitGWMetV (peptide)
peptide: H[Trp(1-Me)][Cit]G[Trp(1-Me)]V-{Toyopearl AF‑Amino‑650M resin}
notes: Variant of HWRGWV on Toyopearl resin; also called HWMetCitGWMetV-Toyopearl

Experiments:
[1] = molecular target: T1, Human polyclonal immunoglobulin G (IgG) (human); assay: affinity chromatography, peptide resin, 10 mg/mL hIgG in PBS; 2nd run, after resin contacted with alpha-chymotrypsin
T1 construct: also called hIgG; IVIG
Experimental: (§1) One hundred microliters of feed sample was loaded onto the column at a flow rate of 0.05 mL/min (87 cm/h).
(§2) Each adsorbent was subjected to five consecutive chromatographic runs. First, a solution of pure human polyclonal IgG at 10 mg/mL in PBS was injected to determine IgG yield for each adsorbent prior to contact with any enzyme. […] The resin was then contacted with a solution of α-chymotrypsin in Tris buffer pH 8.5 for 10 minutes. The amount of enzyme loaded onto the column was in a mass ratio of 1:100 peptide:enzyme, as done by Verdoliva et al. [35]. After rinsing the resin, a second injection of IgG was then performed to estimate the loss of binding capacity due to the digestion of the peptide ligand by α-chymotrypsin. The resin was then contacted with the second enzyme solution, i.e., trypsin in Tris buffer pH 8.5, at the same peptide:enzyme ratio. A third IgG injection was finally performed to estimate the residual binding capacity of each resin after the second enzyme treatment.

[2] = molecular target: T1, Human polyclonal immunoglobulin G (IgG); assay: affinity chromatography, peptide on Toyopearl resin, pure human IgG load; yield = IgG eluted/IgG loaded, by Protein G chromatography
Experimental: Each adsorbent thus obtained was packed into a chromatographic column (0.1 mL) and tested for IgG binding. Flowthrough and elution fractions were collected and analyzed by Protein G chromatography to determine IgG yield (Table 2).

[3] = molecular target: T1, Human polyclonal immunoglobulin G (IgG); assay: affinity chromatography, peptide resin, 10 mg/mL hIgG in PBS; 1st run, before any enzyme
Experimental: as §1, §2

albumin [4] = molecular target: T2, albumin (human, UniProt P02768 25-609); assay: SDS-PAGE of fractions eluted from peptide resin loaded with Cohn fraction II+III
T2 construct: Impurity in the Cohn fraction II+III feed, seen on SDS-PAGE of the eluted fractions
T2 sequence (P02768 25-609 limits assumed): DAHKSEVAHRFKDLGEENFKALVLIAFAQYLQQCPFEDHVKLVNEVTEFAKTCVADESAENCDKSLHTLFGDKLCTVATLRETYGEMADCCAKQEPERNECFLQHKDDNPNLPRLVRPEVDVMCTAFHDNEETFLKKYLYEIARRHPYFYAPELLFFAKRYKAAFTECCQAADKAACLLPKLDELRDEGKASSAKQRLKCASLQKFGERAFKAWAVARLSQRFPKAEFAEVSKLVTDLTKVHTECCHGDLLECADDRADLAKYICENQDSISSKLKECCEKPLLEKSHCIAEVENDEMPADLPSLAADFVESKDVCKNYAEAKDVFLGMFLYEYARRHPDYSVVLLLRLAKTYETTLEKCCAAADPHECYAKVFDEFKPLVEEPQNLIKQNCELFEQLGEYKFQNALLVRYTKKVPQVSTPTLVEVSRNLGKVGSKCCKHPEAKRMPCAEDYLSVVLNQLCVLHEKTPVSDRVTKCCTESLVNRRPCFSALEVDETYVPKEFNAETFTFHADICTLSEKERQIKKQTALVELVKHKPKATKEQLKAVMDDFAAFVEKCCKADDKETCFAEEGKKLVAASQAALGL
Experimental: Each peptide resin was packed and swollen as described before. […] Toyopearl AF-rProtein A-650F resin was used as a positive control. As per manufacturer's instructions, the chromatographic protocol comprised binding with PBS, pH 7.4 (at a flow rate of 0.05 mL/min) and elution with 0.1M Glycine buffer pH 2.5 (at a flow rate of 0.4 mL/min). […] Fractions were collected and used for analysis of IgG purity and yield as described below.
The original peptide ligands were employed as positive controls. The crude stock of Cohn II+III paste was diluted in PBS to prepare the feed sample and solid particles were removed by filtration prior to injection into the column. […] Fractions were collected and analyzed by Protein G chromatography and SDS-PAGE (FIG. 3) to determine IgG yield and purity respectively.

[5] = molecular target: T1, Human polyclonal immunoglobulin G (IgG); assay: affinity chromatography, peptide resin, 10 mg/mL hIgG in PBS; 3rd run, after alpha-chymotrypsin and then trypsin
Experimental: as §1, §2

[6] = molecular target: T1, Human polyclonal immunoglobulin G (IgG); assay: affinity chromatography of Cohn fraction II+III of human plasma on peptide resin; binding PBS + 0.25M NaCl, elution acetate pH 5.0; yield by Protein G chromatography
Experimental: (§3) Toyopearl AF-rProtein A-650F resin was used as a positive control. As per manufacturer's instructions, the chromatographic protocol comprised binding with PBS, pH 7.4 (at a flow rate of 0.05 mL/min) and elution with 0.1M Glycine buffer pH 2.5 (at a flow rate of 0.4 mL/min). […] Fractions were collected and used for analysis of IgG purity and yield as described below.
The original peptide ligands were employed as positive controls. The crude stock of Cohn II+III paste was diluted in PBS to prepare the feed sample and solid particles were removed by filtration prior to injection into the column.

albumin [7] = molecular target: T2, albumin; assay: SDS-PAGE of fractions from peptide resin loaded with Cohn fraction II+III at different NaCl
[8] = molecular target: T1, Human polyclonal immunoglobulin G (IgG); assay: affinity chromatography of Cohn fraction II+III on peptide resin; binding buffer PBS + 0M NaCl
[9] = molecular target: T1, Human polyclonal immunoglobulin G (IgG); assay: affinity chromatography of Cohn fraction II+III on peptide resin; binding buffer PBS + 0.13M NaCl
[10] = molecular target: T1, Human polyclonal immunoglobulin G (IgG); assay: affinity chromatography of Cohn fraction II+III on peptide resin; binding buffer PBS + 0.25M NaCl
Experimental: as §3

Row | Binder | IgG yield [1] [%] | IgG yield [2] [%] | IgG yield [3] [%] | binding result (albumin [4]) | IgG yield [5] [%] | IgG yield [6] [%] | binding result (albumin [7]) | IgG yield [8] [%] | IgG yield [9] [%] | IgG yield [10] [%]
1 | B1 | 78 | 93 | 93 | binds | 54 | 91 | – | – | – | –
2 | B2 | 49 | 42 | 52 | binds | 53 | 48 | – | – | – | –
3 | B3 | 76 | 78 | 78 | binds | 71 | 54 | – | – | – | –
4 | B4 | – | – | – | – | – | – | binds | 91 | 93 | 94
5 | B5 | 72 | 95 | 95 | binds | 36 | 85 | – | 90 | 85 | 85
6 | B6 | 92 | 90 | 90 | binds | 91 | 89 | – | – | – | –
7 | B7 | 91 | 90 | 90 | binds | 90 | 91 | – | 89 | 90 | 91
